Results: article PMC8927971

Tested on: CIZ1 N571ΔPLD2 (Mus musculus)
Test: EMSA
Settings: 10 mM Tris-HCl pH 7.5, 30 mM NaCl, 2.5 mM MgCl2, 0.2 mM DTT, 0.1% IGEPAL CA-630, 0.1 mg/ml yeast tRNA, 0.4 U RNaseOUT, 1% glycerol; 30 C 20 min; 0.7% agarose …

Row | Substance | K half [nM]
1 | Xist repeat E proximal | 100
2 | Xist repeat A | 100
